Measurements as given in the Immune Epitope Database (IEDB).

Key:
[1] = target: HLA-B*15:01; test: IEDB peptide-MHC binding, purified MHC/competitive/fluorescence; ≥ and ≤ were set here for values at or beyond the usual limits of such assays
[2] = target: HLA-A*24:02; test: as above; settings: source organism: Zaire ebolavirus
[3] = target: HLA-A*02:11; test: IEDB peptide-MHC binding, purified MHC/direct/fluorescence; filed as Kd, often an IC50 or EC50 that approximates it; ≥ and ≤ were set here for values at or beyond the usual limits of such assays
[4] = target: HLA-A*69:01; test: as above
[5] = target: HLA-A*02:12; test: as above
[6] = target: HLA-A*02:03; test: as above
[7] = target: HLA-A*32:01; test: IEDB peptide-MHC binding, purified MHC/competitive/radioactivity; filed as Kd, often an IC50 or EC50 that approximates it; ≥ and ≤ were set here for values at or beyond the usual limits of such assays; settings: source organism: Dengue virus 3 Martinique/1243/1999
[8] = target: HLA-B*57:01; test: as above
[9] = target: HLA-B*58:01; test: as above
[10] = target: HLA-B*27:03; test: IEDB peptide-MHC binding, purified MHC/competitive/fluorescence; filed as Kd, often an IC50 or EC50 that approximates it; ≥ and ≤ were set here for values at or beyond the usual limits of such assays
[11] = target: HLA-B*15:17; test: as above
[12] = target: HLA-A*69:01; test: as above
[13] = target: HLA-B*51:01; test: as above
[14] = target: HLA-B*46:01; test: as above
[15] = target: HLA-B*57:01; test: as above
[16] = target: HLA-B*18:01; test: as above
[17] = target: HLA-A*26:01; test: as above
[18] = target: HLA-B*39:01; test: as above
[19] = target: HLA-A*68:02; test: IEDB peptide-MHC binding, purified MHC/direct/fluorescence; filed as Kd, often an IC50 or EC50 that approximates it; ≥ and ≤ were set here for values at or beyond the usual limits of such assays; settings: source organism: Araucaria virus
[20] = target: HLA-A*03:01; test: as above
[21] = target: HLA-A*24:03; test: as above
[22] = target: HLA-A*02:19; test: as above
[23] = target: HLA-B*15:42; test: IEDB peptide-MHC binding, purified MHC/competitive/fluorescence; filed as Kd, often an IC50 or EC50 that approximates it; ≥ and ≤ were set here for values at or beyond the usual limits of such assays
[24] = target: HLA-B*83:01; test: as above
[25] = target: HLA-B*45:06; test: as above
[26] = target: HLA-B*18:01; test: IEDB peptide-MHC binding, purified MHC/direct/fluorescence; filed as Kd, often an IC50 or EC50 that approximates it; ≥ and ≤ were set here for values at or beyond the usual limits of such assays; settings: source organism: Yellow fever virus 1899/81
[27] = target: HLA-B*08:02; test: as above
[28] = target: HLA-B*53:01; test: IEDB peptide-MHC binding, purified MHC/competitive/radioactivity; filed as Kd, often an IC50 or EC50 that approximates it; ≥ and ≤ were set here for values at or beyond the usual limits of such assays
[29] = target: HLA-A*02:01; test: IEDB peptide-MHC binding, purified MHC/direct/fluorescence; filed as Kd, often an IC50 or EC50 that approximates it; ≥ and ≤ were set here for values at or beyond the usual limits of such assays
[30] = target: HLA-A*01:01; test: as above; settings: source organism: Reston ebolavirus - Reston
[31] = target: HLA-A*02:01; test: IEDB peptide-MHC binding, purified MHC/competitive/fluorescence; ≥ and ≤ were set here for values at or beyond the usual limits of such assays; settings: source organism: Vaccinia virus
[32] = target: HLA-A*31:01; test: IEDB peptide-MHC binding, purified MHC/competitive/fluorescence; filed as Kd, often an IC50 or EC50 that approximates it; ≥ and ≤ were set here for values at or beyond the usual limits of such assays; settings: source organism: Mopeia Lassa virus reassortant 29
[33] = target: HLA-A*11:01; test: IEDB peptide-MHC binding, purified MHC/direct/fluorescence; filed as Kd, often an IC50 or EC50 that approximates it; ≥ and ≤ were set here for values at or beyond the usual limits of such assays; settings: source organism: Mammarenavirus lassaense
[34] = target: HLA-B*15:01; test: as above; settings: source organism: Campylobacter jejuni
[35] = target: HLA-A*11:01; test: IEDB peptide-MHC binding, purified MHC/competitive/fluorescence; ≥ and ≤ were set here for values at or beyond the usual limits of such assays; settings: source organism: Zaire ebolavirus
[36] = target: HLA-B*08:01; test: IEDB peptide-MHC binding, purified MHC/direct/fluorescence; filed as Kd, often an IC50 or EC50 that approximates it; ≥ and ≤ were set here for values at or beyond the usual limits of such assays; settings: source organism: Mycobacterium tuberculosis str. Haarlem
[37] = target: HLA-A*02:03; test: IEDB peptide-MHC binding, purified MHC/competitive/radioactivity; filed as Kd, often an IC50 or EC50 that approximates it; ≥ and ≤ were set here for values at or beyond the usual limits of such assays; settings: source organism: Dengue virus 1 Brazil/97-11/1997
[38] = target: HLA-A*02:17; test: as above; settings: source organism: Dengue virus 1 Singapore/S275/1990
[39] = target: HLA-B*15:01; test: IEDB peptide-MHC binding, purified MHC/competitive/fluorescence; filed as Kd, often an IC50 or EC50 that approximates it; ≥ and ≤ were set here for values at or beyond the usual limits of such assays; settings: source organism: Zaire ebolavirus
[40] = target: HLA-A*29:02; test: IEDB peptide-MHC binding, purified MHC/direct/fluorescence; filed as Kd, often an IC50 or EC50 that approximates it; ≥ and ≤ were set here for values at or beyond the usual limits of such assays; settings: source organism: Zaire ebolavirus
[41] = target: HLA-A*24:02; test: IEDB peptide-MHC binding, purified MHC/competitive/radioactivity; filed as Kd, often an IC50 or EC50 that approximates it; ≥ and ≤ were set here for values at or beyond the usual limits of such assays; settings: source organism: Dengue virus 4 Philippines/H241/1956
[42] = source organism: Zaire ebolavirus
[43] = source organism: Mycobacterium tuberculosis str. Haarlem
[44] = source organism: Dengue virus 3 Martinique/1243/1999
[45] = source organism: Hantavirus HPR/02-73
[46] = source organism: Araucaria virus
[47] = source organism: Dengue virus 4 Dominica/814669/1981
[48] = source organism: Dengue virus 2 Jamaica/1409/1983
[49] = source organism: Yellow fever virus 1899/81
[50] = source organism: Dengue virus 3 Singapore/8120/1995
[51] = source organism: Dengue virus 4 Philippines/H241/1956
[52] = source organism: Mopeia Lassa virus reassortant 29
[53] = source organism: dengue virus type 3

Sequence AFHKEGAFF has an IC50 [1, 42] of 1.88 µM and an IC50 [2] of 0.0199 µM.

For ALFPIIWAL, the Kd [3, 43] was no more than 0.001 µM, the Kd ([4]; source organism: Mycobacterium tuberculosis) was 0.536 µM and the Kd [5, 43] was 0.004 µM. The Kd [6, 43] was 0.003 µM.

Sequence ATGPITTLW has a Kd [7] of 0.221 µM, a Kd [8, 44] of 0.0121 µM and a Kd [9, 44] of 0.00489 µM.

GFAIPIILK showed a Kd [10, 45] of no less than 20 µM, a Kd [11, 45] of no less than 20 µM and a Kd [12, 45] of no less than 20 µM. It also gave a Kd [13, 45] of no less than 20 µM, a Kd [14, 45] of no less than 20 µM and a Kd [15, 45] of no less than 20 µM. It also gave a Kd [16, 45] of no less than 20 µM, a Kd [17, 45] of no less than 20 µM and a Kd [18, 45] of no less than 20 µM. It also gave a Kd [19] of no less than 20 µM, a Kd ([20]; source organism: Juquitiba virus) of 6 µM and a Kd [21, 46] of no less than 20 µM. The Kd [5, 46] was no less than 20 µM, the Kd [22, 46] was no less than 20 µM and the Kd [6, 46] was no less than 20 µM.

Work on GSSIGKMFES yielded a Kd [8, 47] of 1.83 µM and a Kd [9, 47] of 0.251 µM.

For GSSIGQMFET, the Kd [8, 48] was 1.08 µM and the Kd [9, 48] was 1.51 µM.

Work on GTSLLFLNDM yielded a Kd [8, 47] of no less than 22.1 µM.

Sequence HEVNGTWMI has a Kd [23, 49] of no less than 5 µM, a Kd [24, 49] of no less than 5 µM and a Kd [25, 49] of no less than 5 µM. It also gave a Kd [26] of 0.009 µM.

HSSTWHYDDE showed a Kd [8, 50] of 6.58 µM and a Kd [9, 50] of 0.866 µM.

For ILKERKQAL, the Kd ([27]; source organism: Listeria monocytogenes serotype 4b str. H7858) was 1.62 µM.

Work on KTKLNDWDF yielded a Kd [8, 44] of 0.0507 µM.

Sequence MKITAEWLW has a Kd [28, 48] of 1.09 µM, a Kd [8, 48] of 0.0433 µM and a Kd [9, 48] of 0.00543 µM.

With MVAKYDLLV the Kd [10, 42] was no less than 20 µM, the Kd [13, 42] was no less than 20 µM and the Kd [14, 42] was no less than 20 µM. It also gave a Kd [15, 42] of no less than 20 µM, a Kd [16, 42] of no less than 20 µM and a Kd [17, 42] of no less than 20 µM. For the same sequence, the Kd [18, 42] was no less than 20 µM, the Kd ([29]; source organism: Reston ebolavirus - Reston) was 0.0141 µM and the Kd [20, 42] was no less than 20 µM. For the same sequence, the Kd [5, 42] was no less than 20 µM and the Kd [30] was no less than 20 µM.

For PMMIQTRAA, the IC50 [31] was 18.2 µM and the IC50 ([1]; source organism: Vaccinia virus) was no less than 298 µM.

Work on PSSVAARGYI yielded a Kd [8, 51] of 16.4 µM and a Kd [9, 51] of 0.512 µM.

RLKFSLSYK was tested, and the Kd [23, 52] was no less than 5 µM, the Kd [32] was 0.00717 µM and the Kd [24, 52] was no less than 5 µM. It also gave a Kd [25, 52] of no less than 5 µM, a Kd ([20]; source organism: Mammarenavirus lassaense) of 0.0484 µM and a Kd [33] of 0.0597 µM.

With SLNLAKEAV the Kd ([3]; source organism: Campylobacter jejuni subsp. jejuni HB93-13) was 0.003 µM, the Kd ([4]; source organism: Campylobacter jejuni) was 4.34 µM and the Kd [34] was no less than 34 µM.

In the case of SQKGQHIEG, the IC50 [35] is reported as no less than 186 µM and the IC50 [1, 42] is reported as 46.5 µM.

TLRRRFAVA gave a Kd [27, 43] of no less than 20 µM and a Kd [36] of 0.012 µM.

In the case of TLYAVATTV, the Kd [37] is reported as 0.0128 µM, the Kd [38] is reported as 1.62 µM and the Kd [3, 53] is reported as no more than 0.001 µM. For the same sequence, the Kd [5, 53] was 0.005 µM and the Kd [22, 53] was 0.01 µM.

With TSSQQKADW the Kd [8, 48] was 0.0291 µM and the Kd [9, 48] was 0.186 µM.

With VLSDLCNFL the Kd [10, 42] was no less than 20 µM, the Kd [11, 42] was no less than 20 µM and the Kd [12, 42] was no less than 20 µM. For the same sequence, the Kd [13, 42] was no less than 20 µM, the Kd [14, 42] was no less than 20 µM and the Kd [39] was no less than 20 µM. For the same sequence, the Kd [15, 42] was no less than 20 µM, the Kd [16, 42] was no less than 20 µM and the Kd [17, 42] was no less than 20 µM. The Kd [18, 42] was no less than 20 µM, the Kd ([29]; source organism: Ebola virus - Gabon (1994-1997)) was 0.005 µM and the Kd [20, 42] was no less than 20 µM. It also gave a Kd [21, 42] of no less than 20 µM and a Kd [40] of no less than 20 µM.

VSAGESSIL gave an IC50 ([1]; source organism: Vaccinia virus Copenhagen) of no less than 87.4 µM.

With VTMTLWYMW the Kd [28, 51] was 2.54 µM, the Kd [8, 51] was 0.00752 µM and the Kd [9, 51] was 0.00159 µM. It also gave a Kd [41] of 0.0317 µM.
